± gives the uncertainty stated by the source.
Assay: self-splicing fitness, log relative to wild type (ln ratio); higher = more splicing; Tetrahymena group I intron in knt gene, E. coli kanamycin selection, DiMSum; sequences stand for … in CUCUCU…GGAGGGAAAAGUUAUCAGGCAUGCACCUGGUAGCUAGUCUUUAAACCAAUAGAUUGCAUCGGUUUAAAAGGCAAGACCGUCAAAUUGCGGGAAAGGGGUCAACAGCCGUUCAGUACCAAGUCUCAGGGGAAACUUUGAGAUGGCCUUGCAAAGGGUAUGGUAAUAAGCUGACGGACAUGGUCCUAACCACGCAGCCAAGUCCUAAGUCAACAGAUCUUCUGUUGAUAUGGAUGCAGUUCACAGACUAAAUGUCGGUCGGGGAAGAUGUAUUCUUCUCAUAAGAUAUAGUCGGACCUCUCCUUAAUGGGAGCUAGCGGAUGAAGUGAUGCAACACUGGAGCCGCUGGGAACUAAUUUGUAUGCGAAAGUAUAUUGAUUAGUUUUGGAGUACUCGUGGUCG
In short: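 A randomised library covering all eight P1ex-region intron nucleotides was built with the intron in the knt kanamycin-resistance gene on pET-22b(+) and held in E. coli BL21(DE3). Cells were grown overnight at 37°C or 30°C on LB agar, with or without 25 μg/mL kanamycin, plus 100 μg/mL carbenicillin, 50 μM IPTG and 0.2% rhamnose, and pooled colonies were amplicon-sequenced on an Illumina HiSeq 2500. DiMSum fitness is the error-weighted combination of wild-type-normalised replicate fold changes, kanamycin versus none.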

| Sequence | self-splicing fitness (ln) (30 °C) | self-splicing fitness (ln) (37 °C) |
| --- | --- | --- |
| GUAUAGCAAUAUUACGACCA | -0.996 ± 0.17 | -0.193 ± 0.17 |
| AUGUAGCAAUAUUACGAAUU | -2 ± 0.12 | -1.84 ± 0.16 |
| AGCUAGCAAUAUUACGCUGC | -3.59 ± 0.48 | – |
| UUACAGCAAUAUUACGGAUU | -3.81 ± 0.24 | -2.08 ± 0.16 |
| CAUGAGCAAUAUUACGCCUC | – | -1.75 ± 0.42 |
| ACGAAGCAAUAUUACGCCUU | -2.57 ± 0.14 | -0.89 ± 0.13 |
| GACCAGCAAUAUUACGCAUA | -0.474 ± 0.058 | -0.452 ± 0.074 |
| GUGGAGCAAUAUUACGUUUC | -3.39 ± 0.37 | -1.9 ± 0.21 |
| UCUCAGCAAUAUUACGUCAU | -3.13 ± 0.2 | -3.29 ± 0.27 |
| UGGGAGCAAUAUUACGUUGC | -3.43 ± 0.4 | -1.53 ± 0.23 |
| CCCGAGCAAUAUUACGGCAA | -3.03 ± 0.35 | -2.32 ± 0.22 |
| AACGAGCAAUAUUACGGGAU | -4.34 ± 0.19 | -3.33 ± 0.23 |
| CCUAAGCAAUAUUACGCUAU | -4.71 ± 0.39 | -2.35 ± 0.24 |
| GUAGAGCAAUAUUACGGAGC | -0.91 ± 0.14 | -0.327 ± 0.2 |
| CAUGAGCAAUAUUACGCGUG | -4.92 ± 0.36 | -2.71 ± 0.26 |
| GCCGAGCAAUAUUACGCUAU | -2.6 ± 0.29 | -1.75 ± 0.15 |
| UGGCAGCAAUAUUACGUCGC | -3.89 ± 0.31 | -2.95 ± 0.43 |
| ACUGAGCAAUAUUACGGCAU | -0.643 ± 0.071 | -0.708 ± 0.1 |
| CUGGAGCAAUAUUACGGUUG | -1.87 ± 0.081 | -1.11 ± 0.095 |
| UCACAGCAAUAUUACGGUGU | -2.41 ± 0.17 | -2.23 ± 0.14 |

| Sequence | self-splicing fitness (ln) (30 °C) | self-splicing fitness (ln) (37 °C) |
| --- | --- | --- |
| CGGAAGCAAUAUUACGCGGA | -2.73 ± 0.28 | -2.93 ± 0.43 |
| GAGUAGCAAUAUUACGCGCA | -1.93 ± 0.15 | -0.701 ± 0.2 |
| ACCCAGCAAUAUUACGAGCG | -2.3 ± 0.074 | -0.837 ± 0.091 |
| UUUGAGCAAUAUUACGCUGU | -3.01 ± 0.27 | – |
| UGCAAGCAAUAUUACGAGUC | -2.87 ± 0.15 | -1.83 ± 0.14 |
| GUUGAGCAAUAUUACGCUGC | – | -0.666 ± 0.3 |
| GACCAGCAAUAUUACGGGCC | -3.69 ± 0.15 | -2.26 ± 0.21 |
| CGGCAGCAAUAUUACGAGCU | -2.8 ± 0.17 | -1.55 ± 0.14 |
| CCAGAGCAAUAUUACGCUCG | -2.32 ± 0.28 | -1.95 ± 0.38 |
| AACUAGCAAUAUUACGCCCC | 0.0551 ± 0.17 | -0.32 ± 0.18 |
| CGGGAGCAAUAUUACGAGCG | -1.78 ± 0.18 | -1.19 ± 0.48 |
| UAGUAGCAAUAUUACGAGCG | -0.586 ± 0.095 | 0.438 ± 0.12 |
| CUGUAGCAAUAUUACGGAUU | -3.48 ± 0.28 | -2.7 ± 0.33 |
| GUAGAGCAAUAUUACGGCUA | -0.487 ± 0.11 | 0.641 ± 0.16 |
| UAGUAGCAAUAUUACGGGAA | -2.79 ± 0.32 | -1.65 ± 0.29 |
| CUUAAGCAAUAUUACGUCUG | -0.605 ± 0.067 | -0.254 ± 0.08 |
| CAUAAGCAAUAUUACGUACU | – | -2 ± 0.32 |
| CCAAAGCAAUAUUACGCGCA | -3.48 ± 0.28 | -3.13 ± 0.24 |
| UAGAAGCAAUAUUACGAAUA | -1.14 ± 0.12 | -0.376 ± 0.12 |
